Laboratory results reported in paper PMC10492923 (MedComm, 2023).

Biological target: T1, extracellular protease domain of wild-type ACE2 (human, UniProt Q9BYF1 19-615)
T1 construct: also called WT ACE2ecd; ACE2ecd
Assay: SPR
Settings: both partners purified

T1 sequence (Q9BYF1 19-615): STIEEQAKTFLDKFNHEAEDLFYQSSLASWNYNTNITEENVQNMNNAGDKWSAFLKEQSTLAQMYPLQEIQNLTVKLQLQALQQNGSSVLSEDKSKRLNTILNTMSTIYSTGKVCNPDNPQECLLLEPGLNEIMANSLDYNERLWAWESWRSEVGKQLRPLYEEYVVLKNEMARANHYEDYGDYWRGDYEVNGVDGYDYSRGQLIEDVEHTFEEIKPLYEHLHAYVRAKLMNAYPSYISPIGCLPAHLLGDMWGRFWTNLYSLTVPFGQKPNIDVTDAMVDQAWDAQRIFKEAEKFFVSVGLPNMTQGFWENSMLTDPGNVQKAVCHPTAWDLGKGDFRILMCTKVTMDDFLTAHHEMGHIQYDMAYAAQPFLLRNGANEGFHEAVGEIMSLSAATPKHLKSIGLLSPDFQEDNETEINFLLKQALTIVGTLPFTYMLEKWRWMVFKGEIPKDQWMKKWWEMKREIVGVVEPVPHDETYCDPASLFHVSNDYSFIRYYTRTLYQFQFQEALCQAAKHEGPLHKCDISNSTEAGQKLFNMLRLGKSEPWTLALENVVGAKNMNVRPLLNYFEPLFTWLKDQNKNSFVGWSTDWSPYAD

B1: RBD of HCoV-NL63 (domain or fragment)
chain: QHTDINFTATASFGGSCYVCKPHQVNISLNGNTSVCVRTSHFSIRYIYNRVKSGSPGDSSWHIYLKSGTCPFSFSKLNNFQKFKTICFSTVEVPGSCNFPLEATWHYTSYTIVGALYVTWSEGNSITGVPYPVSGI
Does B1 bind?
Result: binds
